Laboratory results published in IntAct's records for PubMed 21376300.

B1: Voltage-dependent calcium channel gamma-2 subunit (Rattus norvegicus (Rat)), Q71RJ2 (parent)
chain: MGLFDRGVQMLLTTVGAFAAFSLMTIAVGTDYWLYSRGVCKTKSVSENETSKKNEEVMTHSGLWRTCCLEGNFKGLCKQIDHFPEDADYEADTAEYFLRAVRASSIFPILSVILLFMGGLCIAASEFYKTRHNIILSAGIFFVSAGLSNIIGIIVYISANAGDPSKSDSKKNSYSYGWSFYFGALSFIIAEMVGVLAVHMFIDRHKQLRATARATDYLQASAITRIPSYRYRYQRRSRSSSRSTEPSHSRDASPVGVKGFNTLPSTEISMYTLSRDPLKAATTPTATYNSDRDNSFLQVHNCIQKDSKDSLHANTANRRTTPV
B2: Band 4.1-like protein 1 (Rattus norvegicus (Rat)), Q9WTP0 (parent)
chain: MTTETGPDSEVKKAQEETPQQPEAAAAVTTPVTPAGHSHPETNSNEKHLTQQDTRPAEQSLDMEEKDYCEADGLSERTTPSKAQKSPQKIAKKFKSATCRVTLLDASEYECEVEKHGRGQVLFDLVCEHLNLLEKDYFGLTFCDADSQKNWLDPSKEIKKQIRSSPWNFAFTVKFYPPDPAQLTEDITRYYLCLQLRADIITGRLPCSFVTHALLGSYAVQAELGDHDTEEHVGNYVSELRFAPNQTRELEERIMELHKTYRGMTPGEAEIHFLENAKKLSMYGVDLHHAKDSEGIDIMLGVCANGLLIYRDRLRINRFAWPKILKISYKRSNFYIKIRPGEYEQFESTIGFKLPNHRSAKRLWKVCIEHHTFFRLVSPEPPPKGFLVMGSKFRYSGRTQAQTRQASALIDRPAPFFERSSSKRYTMSRSLDGAEFSRPASVSENHDAGPDGDKREDDAESGGRRSEAEEGEVRTPTKIKELKPEQETTPRHKQEFLDKPEDVLLKHQASINELKRTLKEPNSKLIHRDRDWERERRLPSSPASPSPKGTPEKASERAGLREGSEEKVKPPRPRAPESDTGDEDQDQERDAVFLKDNHLAIERKCSSITVSSTSSLEAEVDFTVIGDYHGGAFEDFSRSLPELDRDKSDSETEGLVFARDLKGPSSQEDESGGIEDSPDRGACSTPELPQFESVKAETMTVSSLAIRKKIEPEAMLQSRVSTADSTQVDGGAPAAKDFMTTPPCITTETISTTMENSLKSGKGAAAMIPGPQTVATEIRSLSPIIGKDVLTSTYGATAETLSTSTTTHVTKTVKGGFSETRIEKRIIITGDEDVDQDQALALAIKEAKLQHPDMLVTKAVVYRETDPSPEERDKKPQES

Variants of: B1
Conditions: with gria1_rat Gria1, P19490
Target sequence in this assay (P19490 whole entry): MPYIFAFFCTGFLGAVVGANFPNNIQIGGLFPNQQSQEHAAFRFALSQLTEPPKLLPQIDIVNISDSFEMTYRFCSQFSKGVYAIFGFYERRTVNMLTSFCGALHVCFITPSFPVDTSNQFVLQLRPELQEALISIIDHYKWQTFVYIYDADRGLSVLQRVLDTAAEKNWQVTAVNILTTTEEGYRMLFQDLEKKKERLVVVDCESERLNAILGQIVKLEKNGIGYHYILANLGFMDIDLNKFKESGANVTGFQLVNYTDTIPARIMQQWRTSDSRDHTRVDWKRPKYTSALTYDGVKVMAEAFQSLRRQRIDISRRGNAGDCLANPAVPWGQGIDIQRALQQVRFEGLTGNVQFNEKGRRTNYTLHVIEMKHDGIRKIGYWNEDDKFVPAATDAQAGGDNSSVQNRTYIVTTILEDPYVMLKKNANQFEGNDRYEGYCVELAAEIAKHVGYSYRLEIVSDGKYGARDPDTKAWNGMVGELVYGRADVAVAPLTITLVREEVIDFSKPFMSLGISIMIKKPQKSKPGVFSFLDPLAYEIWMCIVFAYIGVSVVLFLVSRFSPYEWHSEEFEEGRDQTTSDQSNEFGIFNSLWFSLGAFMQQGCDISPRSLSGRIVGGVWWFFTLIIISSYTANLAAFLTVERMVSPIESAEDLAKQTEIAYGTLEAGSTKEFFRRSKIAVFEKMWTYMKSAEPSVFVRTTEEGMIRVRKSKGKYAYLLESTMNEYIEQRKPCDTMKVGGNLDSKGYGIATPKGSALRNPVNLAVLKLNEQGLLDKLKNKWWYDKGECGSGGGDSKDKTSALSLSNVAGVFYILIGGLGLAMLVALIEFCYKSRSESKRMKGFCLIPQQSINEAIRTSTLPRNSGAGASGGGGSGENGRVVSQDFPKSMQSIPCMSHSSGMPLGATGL

Variant	effect of a mutation on the interaction
MGLFDRGVQMLLTTVGAFAAFSLMTIAVGTDYWLYSRGVCKTKSVSENETSKKNEEVMTHSGLWRTCCLEGNFKGLCKQIDHFPEDADYEADTAEYFLRAVRASSIFPILSVILLFMGGLCIAASEFYKTRHNIILSAGIFFLSAGLSNIIGIIVYISANAGDPSKSDSKKNSYSYGWSFYFGALSFIIAEMVGVLAVHMFIDRHKQLRATARATDYLQASAITRIPSYRYRYQRRSRSSSRSTEPSHSRDASPVGVKGFNTLPSTEISMYTLSRDPLKAATTPTATYNSDRDNSFLQVHNCIQKDSKDSLHANTANRRTTPV [V143L]	decreasing interaction

Variants of: B1
Conditions: with gria2_rat Gria2, P19491
Chain of gria2_rat Gria2, P19491 (P19491 whole entry): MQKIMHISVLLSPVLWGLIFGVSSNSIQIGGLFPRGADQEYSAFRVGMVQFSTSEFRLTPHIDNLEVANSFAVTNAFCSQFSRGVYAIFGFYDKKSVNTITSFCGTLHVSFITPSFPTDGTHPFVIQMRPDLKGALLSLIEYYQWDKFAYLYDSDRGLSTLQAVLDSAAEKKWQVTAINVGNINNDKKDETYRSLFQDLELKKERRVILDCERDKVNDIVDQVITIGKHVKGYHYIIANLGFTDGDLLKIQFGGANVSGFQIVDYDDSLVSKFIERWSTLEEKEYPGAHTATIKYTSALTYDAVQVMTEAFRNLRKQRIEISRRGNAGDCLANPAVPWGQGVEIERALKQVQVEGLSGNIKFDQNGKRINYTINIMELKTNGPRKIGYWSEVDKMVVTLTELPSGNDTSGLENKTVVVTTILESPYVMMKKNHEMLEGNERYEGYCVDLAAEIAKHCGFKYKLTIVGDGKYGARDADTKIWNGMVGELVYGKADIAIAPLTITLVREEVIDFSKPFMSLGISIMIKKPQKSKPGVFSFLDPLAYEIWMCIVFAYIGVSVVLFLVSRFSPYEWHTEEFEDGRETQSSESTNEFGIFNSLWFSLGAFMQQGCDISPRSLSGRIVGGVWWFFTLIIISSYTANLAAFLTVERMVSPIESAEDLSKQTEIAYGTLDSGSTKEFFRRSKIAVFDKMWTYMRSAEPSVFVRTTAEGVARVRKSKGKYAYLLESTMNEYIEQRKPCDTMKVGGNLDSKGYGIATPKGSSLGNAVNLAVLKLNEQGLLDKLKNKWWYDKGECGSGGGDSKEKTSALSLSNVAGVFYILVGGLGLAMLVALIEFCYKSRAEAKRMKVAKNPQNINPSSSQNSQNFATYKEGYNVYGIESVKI

Variant	effect of a mutation on the interaction
MGLFDRGVQMLLTTVGAFAAFSLMTIAVGTDYWLYSRGVCKTKSVSENETSKKNEEVMTHSGLWRTCCLEGNFKGLCKQIDHFPEDADYEADTAEYFLRAVRASSIFPILSVILLFMGGLCIAASEFYKTRHNIILSAGIFFLSAGLSNIIGIIVYISANAGDPSKSDSKKNSYSYGWSFYFGALSFIIAEMVGVLAVHMFIDRHKQLRATARATDYLQASAITRIPSYRYRYQRRSRSSSRSTEPSHSRDASPVGVKGFNTLPSTEISMYTLSRDPLKAATTPTATYNSDRDNSFLQVHNCIQKDSKDSLHANTANRRTTPV [V143L]	decreasing interaction

Variants of: B2
Conditions: with gria1_rat Gria1, P19490
Target sequence in this assay (P19490 whole entry): as the sequence (P19490 whole entry) above

Variant	effect of a mutation on the interaction
P852S	decreasing interaction
